Measured values: PMC5750232, “RAD54 N-terminal domain is a DNA sensor that couples ATP hydrolysis with branch migration of Holliday junctions” (Nature Communications, 2018)
Substitutions are numbered along the chain they refer to.

Experiments:
RAD54 1-142 (NTD) [1] = target: T1, RAD54 1-142 (NTD) (human, UniProt Q92698 1-142); experiment: competition EMSA; conditions: vs 30 nM 32P-PX junction, 300 nM protein, 5 mM Mg2+, 2 mM ATP, 25 mM Tris-acetate pH 7.5, 5 mM Mg acetate, 100 ug/ml BSA, 2 mM DTT, 10% glycerol, 4 C, 45 min, 30 nM PX junction, 6% native PAGE in 0.25x TBE, scale: fold excess, PX complexes stable at 150-200-fold excess of ss- or dsDNA
T1 sequence: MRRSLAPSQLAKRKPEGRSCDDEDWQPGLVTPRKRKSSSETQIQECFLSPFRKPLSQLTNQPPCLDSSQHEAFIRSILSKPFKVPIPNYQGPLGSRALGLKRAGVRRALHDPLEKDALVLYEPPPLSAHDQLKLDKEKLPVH

RAD54 156-747 [2] = target: T2, RAD54 156-747 (human, UniProt Q92698 156-747); experiment: competition EMSA; conditions: vs 30 nM 32P-PX junction, 100 nM protein, 5 mM Mg2+, 2 mM ATP, 25 mM Tris-acetate pH 7.5, 5 mM Mg acetate, 100 ug/ml BSA, 2 mM DTT, 10% glycerol, 4 C, 45 min, 30 nM PX junction, 6% native PAGE in 0.25x TBE, scale: fold excess of competitor giving 50% dissociation of PX complexes
T2 sequence: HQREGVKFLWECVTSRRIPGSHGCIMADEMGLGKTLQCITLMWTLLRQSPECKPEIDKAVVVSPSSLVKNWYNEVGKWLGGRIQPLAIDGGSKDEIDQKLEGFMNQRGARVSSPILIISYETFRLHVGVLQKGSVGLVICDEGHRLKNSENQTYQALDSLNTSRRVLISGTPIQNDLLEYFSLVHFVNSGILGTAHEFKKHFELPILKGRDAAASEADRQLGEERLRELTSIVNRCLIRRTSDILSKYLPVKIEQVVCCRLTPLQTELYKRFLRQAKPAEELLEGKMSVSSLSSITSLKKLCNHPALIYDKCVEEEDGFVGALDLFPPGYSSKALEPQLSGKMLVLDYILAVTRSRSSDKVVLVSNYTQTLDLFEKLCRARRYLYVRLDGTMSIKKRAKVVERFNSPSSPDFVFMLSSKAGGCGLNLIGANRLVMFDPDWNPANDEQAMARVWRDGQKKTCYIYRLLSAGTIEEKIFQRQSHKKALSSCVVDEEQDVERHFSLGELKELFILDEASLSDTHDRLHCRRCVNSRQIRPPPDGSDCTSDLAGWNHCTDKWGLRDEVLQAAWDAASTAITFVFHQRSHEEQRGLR

[3] = target: the molecule itself; experiment: cross-linking; BMH (25 µM) cross-linking of the protein (1.2 µM) without DNA; 20 mM HEPES-KOH pH 7.5, 5 mM MgCl2, 5 mM EDTA, 40 mM KCl, 25 °C; 15% SDS-PAGE, silver staining
RAD54 1-142 (NTD) [4] = target: T1, RAD54 1-142 (NTD); experiment: competition EMSA; vs 30 nM 32P-PX junction; 300 nM protein; 5 mM Mg2+, 2 mM ATP; 25 mM Tris-acetate pH 7.5, 5 mM Mg acetate, 100 ug/ml BSA, 2 mM DTT, 2 mM ATP, 10% glycerol, 4 C, 45 min; 30 nM PX junction; 6% native PAGE in 0.25x TBE; conditions: protein: recombinant; tags: Sumo-His, cleaved; four-way junction, 4 strands
RAD54 1-142 (NTD) [5] = target: T1, RAD54 1-142 (NTD); experiment: EMSA; distinct complexes from 0.1 uM protein; 5 mM Mg2+, 2 mM ATP; 25 mM Tris-acetate pH 7.5, 5 mM Mg acetate, 100 ug/ml BSA, 2 mM DTT, 2 mM ATP, 10% glycerol, 4 C, 45 min; 30 nM PX junction; 6% native PAGE in 0.25x TBE; conditions: protein: recombinant; tags: Sumo-His, cleaved; partial X junction with one ssDNA arm, 4 strands
RAD54 156-747 [6] = target: T2, RAD54 156-747; experiment: EMSA; 100 nM protein; 5 mM Mg2+, 2 mM ATP; 25 mM Tris-acetate pH 7.5, 5 mM Mg acetate, 100 ug/ml BSA, 2 mM DTT, 2 mM ATP, 10% glycerol, 4 C, 45 min; 30 nM PX junction; 6% native PAGE in 0.25x TBE; conditions: protein: recombinant; tags: Sumo-His, cleaved; partial X junction with one ssDNA arm, 4 strands

Molecule: ssDNA (oligo 2)
- binding signal (RAD54 1-142 (NTD) [1]): > 150
- binding signal (RAD54 156-747 [2]): 4

Molecule: dsDNA (oligos 1/2)
- binding signal (RAD54 1-142 (NTD) [1]): > 150

B1: RAD54_(1–142) NTD (domain or fragment, human, UniProt Q92698 1-142, looked up)
chain: T1 sequence
notes: cloned in pETHSUL; Sumo-His tag cleaved off by Sumo hydrolase; also called RAD54 NTD; source: E. coli Rosetta 2 (DE3), purified (HiTrap Ni2+, Sephacryl S-200 HR, Resource S)
- stoichiometry N [3]: 2

B2: RAD54_(1–142) ^S49E (domain or fragment, human, UniProt Q92698 1-142, looked up)
chain: T1 sequence with S49E
notes: source: E. coli Rosetta 2 (DE3), purified (HiTrap Ni2+, Sephacryl S-200 HR, Resource S)
- stoichiometry N [3]: 2

B3: RAD54_(1–142) ^33AAAA36 (domain or fragment, human, UniProt Q92698 1-142, looked up)
chain: T1 sequence with R33A, K34A, R35A, K36A
notes: as for B2
- stoichiometry N [3]: 2

B4: X-junction (174/175/176/177) (structured_DNA)
DNA 1: GACGCTGCCGAATTCTACCAGTGCCTTGCTAGGACATCTTTGCCCACCTGCAGGTTCACCC
DNA 2: TGGGTGAACCTGCAGGTGGGCAAAGATGTCCTAGCAATGTAATCGTCAAGCTTTATGCCGTT
DNA 3: CAACGGCATAAAGCTTGACGATTACATTGCTAGGACATGCTGTCTAGAGGATCCGACTATCGA
DNA 4: ATCGATAGTCGGATCCTCTAGACAGCATGTCCTAGCAAGGCACTGGTAGAATTCGGCAGCGT
- binding signal (RAD54 1-142 (NTD) [4]): ~6 fold preference for PX junction over HJ (X-junction)

B5: non-mobile PX junction (174/175/176/181) (structured_DNA)
DNA 1: B4 DNA 1
DNA 2: B4 DNA 2
DNA 3: B4 DNA 3
DNA 4: TCGATAGTCGGATCCTCTAGACAGC
- binding result (RAD54 1-142 (NTD) [5]): binds
- binding result (RAD54 156-747 [6]): binds
